B1: FAM9B (parent)
chain: EDLTAKRKRMKMDKTCSKTKNKSK
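Further: lentivirally expressed fusions sorted by FACS into six bins by GFP to DsRed ratio, PSI derived from sequencing read proportions per bin multiplied by bin number.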

In the data set the parent is B1. Put plainly: protein stability index of a GFP-peptide fusion (GPS, HEK-293T) (PSI 1-6); higher = more stable. As to conditions: c terminus: a fixed tail appended.
For the variant EDLTAKRKRMKMYKTCSKTKNKSK, the protein stability index amounted to 5.14. Turning to EDLTAKRKRMKMNKTCSKTKNKSK, the protein stability index is 5.3. As to EDLTAKRKRMKMSKTCSKTKNKSK, the protein stability index stood at 4.89. Then EDLTAKRKRMKMLKTCSKTKNKSK, with 4.77; and RDLTAKRKRMKMDKTCSKTKNKSK, with 4.64; and LDLTAKRKRMKMDKTCSKTKNKSK, with 4.38. For YDLTAKRKRMKMDKTCSKTKNKSK the value was 3.72; for VDLTAKRKRMKMDKTCSKTKNKSK, 4.96. Then WDLTAKRKRMKMDKTCSKTKNKSK, with 3.89; and NDLTAKRKRMKMDKTCSKTKNKSK, with 5.29. For the variant GDLTAKRKRMKMDKTCSKTKNKSK, the protein stability index is 4.86. As to CDLTAKRKRMKMDKTCSKTKNKSK, the protein stability index was 3.08. Then DDLTAKRKRMKMDKTCSKTKNKSK, with 5.32; and EDLTNKRKRMKMDKTCSKTKNKSK, with 4.33; and EDLTMKRKRMKMDKTCSKTKNKSK, with 5.2. Then EDLTTKRKRMKMDKTCSKTKNKSK, with 4.51; and EDLTRKRKRMKMDKTCSKTKNKSK, with 5.23; and EDLTHKRKRMKMDKTCSKTKNKSK, with 5.05. Consider EDLTDKRKRMKMDKTCSKTKNKSK, for which the protein stability index worked out at 5.08. For EDLTQKRKRMKMDKTCSKTKNKSK, the protein stability index is 4.71. Then EDLTCKRKRMKMDKTCSKTKNKSK, with 4.05; and EDLTWKRKRMKMDKTCSKTKNKSK, with 5.3; and EDLTAKRKRKKMDKTCSKTKNKSK, with 5.31.

As to EDLTAKRKRHKMDKTCSKTKNKSK, the protein stability index came to 5.43.

Take EDLTAKRKRAKMDKTCSKTKNKSK: the protein stability index was 4.25. For EDLTAKRKRDKMDKTCSKTKNKSK, the protein stability index amounted to 5.29. For EDLTAKRKRNKMDKTCSKTKNKSK the value was 4.23; for EDLTAKRKRVKMDKTCSKTKNKSK, 5.12. For EDLTAKRKRFKMDKTCSKTKNKSK the value was 4.88; for EDLTAKCKRMKMDKTCSKTKNKSK, 5.26. As to EDLTAKLKRMKMDKTCSKTKNKSK, the protein stability index stood at 4.87.

In the case of EDLTAKSKRMKMDKTCSKTKNKSK, the protein stability index is 5.3. For the variant EDLTAKDKRMKMDKTCSKTKNKSK, the protein stability index came out at 5.41.

As for EDLTAKWKRMKMDKTCSKTKNKSK, the protein stability index is 4.33.

Take EDLTAKRKRMKMDKTNSKTKNKSK: the protein stability index came out at 5.46. Then EDLTAKRKRMKMDKTISKTKNKSK, with 4.71; and EDLTAKRKRMKMDKTHSKTKNKSK, with 4.66. In the case of EDLTAKRKRMKMDKTESKTKNKSK, the protein stability index worked out at 5.47. Then EDLTAKRKRMKMDKTMSKTKNKSK, with 5.27; and EDLTAKRKRMKMDKTWSKTKNKSK, with 5.08. Then EDLTAKRKRMKMDKTSSKTKNKSK, with 5.33; and EDLTAKRKRMKMDKTRSKTKNKSK, with 5.47. As to EDLTAKRKRMKMDKTCSKTWNKSK, the protein stability index is 4.47.

Take EDLTAKRKRMKMDKTCSKTDNKSK: the protein stability index was found to be 4.9. With EDLTAKRKRMKMDKTCSKTANKSK, the protein stability index turned out to be 4.94. For EDLTAKRKRMKMDKTCSKTYNKSK the value was 4.43; for EDLTAKRKRMKMDKTCSKTSNKSK, 4.84.

On to EDLTAKRKRMKMDKTCSKTLNKSK, for which the protein stability index stood at 4.96. Turning to EDLTAKRKRMKMDKTCSKTGNKSK, the protein stability index was 5.06. For EDLTAKRKRMKMDKTCSKTCNKSK the value was 4.57; for EDLTAKRKRMKMDKTCSKTVNKSK, 4.32. On to EDLTAKRKRMKMDKTCSKTQNKSK, for which the protein stability index is 5.15. Turning to EDLTAKRKRMKMDKTCSKTINKSK, the protein stability index was found to be 4.75. For EDLTAKRKRMKMDKNCSKTKNKSK the value was 5.33. Regarding EDLTAKRKRMKMDKDCSKTKNKSK, the protein stability index turned out to be 4.91. Then EDLTAKRKRMKMDKRCSKTKNKSK, with 4.88; and EDLTAKRKRMKMDKSCSKTKNKSK, with 4.24; and EDLTAKRKRMKMDKYCSKTKNKSK, with 5.

For EDLTAKRKRMKMDKGCSKTKNKSK, the protein stability index is 4.55.

With EDLTAKRKRMKMDKQCSKTKNKSK, the protein stability index came to 5.42.

With EDLTAKRKRMKMDKHCSKTKNKSK, the protein stability index stood at 4.6. For EDLTAKRKRMKMDKTCEKTKNKSK the value was 5.73; for EDLTAKRKRMKMDKTCKKTKNKSK, 4.55. For the variant EDLTAKRKRMKMDKTCCKTKNKSK, the protein stability index turned out to be 5.05. For the variant EDLTAKRKRMKMDKTCGKTKNKSK, the protein stability index amounted to 5.02. As for EDLTAKRKRMKMDHTCSKTKNKSK, the protein stability index came to 5.36. Then EDLTAKRKRMKMDMTCSKTKNKSK, with 5.45; and EDLTAKRKRMKMDRTCSKTKNKSK, with 5.37. Take EDLTAKRKRMKMDCTCSKTKNKSK: the protein stability index came to 4.41.

For the variant EDLTAKRKRMKMDLTCSKTKNKSK, the protein stability index stood at 4.83. Then EDLTAKRKRMKMDETCSKTKNKSK, with 5.07; and EDLTAKRKRMKMDPTCSKTKNKSK, with 5.37; and EDLTAKRKRMKMDITCSKTKNKSK, with 3.76. For EDLTAKRKRMKMDNTCSKTKNKSK, the protein stability index amounted to 5.51. In the case of EDLTAKRKRMKMDTTCSKTKNKSK, the protein stability index was 5.03. For EDLTAKRKRMKMDDTCSKTKNKSK the value was 5.14. With EDLTAKRKRMKMDKTCSKTKNKNK, the protein stability index stood at 5.12. Take EDLTAKRKRMKMDKTCSKTKNKMK: the protein stability index was determined as 3.93. Then EDLTAKRKRMKMDKTCSKTKNKLK, with 4.76. Then EDLTAKRKRMKMDKTCSKTKNKVK, with 5.27. For EDLTAKRKRMKMDKTCSKTKNKHK the value was 4.53; for EDLTAKRKRMKMDKTCSKTKNKEK, 5.52; for EDLTAKRKRMKMDKTCSKTKNKPK, 5.54. EDLGAKRKRMKMDKTCSKTKNKSK: the protein stability index turned out to be 5.14. As to EDLWAKRKRMKMDKTCSKTKNKSK, the protein stability index is 4.38. For EDLAAKRKRMKMDKTCSKTKNKSK the value was 5.25; for EDLSAKRKRMKMDKTCSKTKNKSK, 4.74.

As for EDLTAKRKRMSMDKTCSKTKNKSK, the protein stability index is 4.79. Then EDLTAKRKRMVMDKTCSKTKNKSK, with 5.08. For EDLTAKRKRMQMDKTCSKTKNKSK the value was 5.02.

Consider EDLTAKRKRMHMDKTCSKTKNKSK, for which the protein stability index was determined as 5.38. EDLTAKRKRMLMDKTCSKTKNKSK: the protein stability index was found to be 4.62. For EDLTAKRKRMTMDKTCSKTKNKSK the value was 4.49; for EDLTAKRKRMPMDKTCSKTKNKSK, 5.16.
